{"source": "paper PMC11666439", "key": {"[1]": {"target": "SARS-CoV-2 spike wt (in-house) (SARS-CoV-2) (UniProt P0DTC2)", "assay": "ELISA"}, "[2]": {"target": "ACE-2-Fc fusion protein (human) (UniProt Q9BYF1)", "sequence (Q9BYF1 18-740)": "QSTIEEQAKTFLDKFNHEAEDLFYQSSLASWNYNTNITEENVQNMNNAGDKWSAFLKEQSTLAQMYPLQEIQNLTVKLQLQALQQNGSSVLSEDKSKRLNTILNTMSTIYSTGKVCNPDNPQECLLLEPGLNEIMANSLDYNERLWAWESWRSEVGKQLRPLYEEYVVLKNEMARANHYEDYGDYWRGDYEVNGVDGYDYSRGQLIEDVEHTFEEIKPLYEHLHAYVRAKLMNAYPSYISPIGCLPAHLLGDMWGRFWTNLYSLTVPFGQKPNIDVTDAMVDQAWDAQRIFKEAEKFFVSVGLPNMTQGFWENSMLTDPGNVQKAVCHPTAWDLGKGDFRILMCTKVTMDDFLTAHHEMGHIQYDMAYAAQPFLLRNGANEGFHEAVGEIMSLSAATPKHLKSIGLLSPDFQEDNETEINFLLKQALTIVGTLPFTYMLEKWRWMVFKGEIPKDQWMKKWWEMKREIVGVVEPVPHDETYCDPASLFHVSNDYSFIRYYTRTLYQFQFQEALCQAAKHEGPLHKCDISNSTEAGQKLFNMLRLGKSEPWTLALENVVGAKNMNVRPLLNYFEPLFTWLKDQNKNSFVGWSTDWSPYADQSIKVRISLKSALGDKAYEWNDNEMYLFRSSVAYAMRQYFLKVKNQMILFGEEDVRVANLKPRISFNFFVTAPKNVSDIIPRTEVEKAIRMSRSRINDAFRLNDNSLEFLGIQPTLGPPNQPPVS", "assay": "BLI"}}}
{"substance": "native MBL from sera (from UniProt P11226 21-248) (natural protein)", "values": [{"measurement": "fold increase of binding after total IgG depletion of vaccinee plasma", "setting": "[1]", "value": 2.6, "unit": "fold"}]}
{"substance": "SARS-CoV-2 RBD Omicron BA.2 (domain or fragment)", "values": [{"measurement": "Kd", "setting": "[2]", "value": 4.47, "unit": "nM"}, {"measurement": "fold improvement of kdis compared to the wt", "setting": "[2]", "value": 1.76, "unit": "fold"}, {"measurement": "koff", "setting": "[2]", "value": 0.0032, "unit": "s⁻¹"}, {"measurement": "kon", "setting": "[2]", "value": 716000, "unit": "M⁻¹ s⁻¹"}]}
{"substance": "SARS-CoV-2 RBD wt (domain or fragment)", "values": [{"measurement": "Kd", "setting": "[2]", "value": 23.4, "unit": "nM"}]}
